Data taken from article PMC9482650, “Quantitative fragmentomics allow affinity mapping of interactomes” (Nature Communications, 2022).

T1: GRIP1_2, Q9Y3R0
T1 sequence (Q9Y3R0 145-248, limits assumed, looked up): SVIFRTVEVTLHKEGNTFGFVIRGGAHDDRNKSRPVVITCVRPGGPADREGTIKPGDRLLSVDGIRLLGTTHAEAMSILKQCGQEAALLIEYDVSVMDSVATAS

T2: FRMPD1, Q5SYB0
T2 sequence (Q5SYB0 52-145, limits assumed, looked up): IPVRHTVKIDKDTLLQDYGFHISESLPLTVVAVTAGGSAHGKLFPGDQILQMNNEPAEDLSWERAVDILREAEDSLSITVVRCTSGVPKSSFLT

T3: MPP6, Q9NZW5
T3 sequence (Q9NZW5 125-219, limits assumed, looked up): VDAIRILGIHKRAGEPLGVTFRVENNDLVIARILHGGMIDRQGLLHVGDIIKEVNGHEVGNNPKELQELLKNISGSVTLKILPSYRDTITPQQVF

T4: DVL3, Q92997
T4 sequence (Q92997 244-331, limits assumed, looked up): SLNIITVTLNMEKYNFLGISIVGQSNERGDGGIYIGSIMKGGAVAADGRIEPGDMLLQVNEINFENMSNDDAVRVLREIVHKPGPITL

T5: TIAM2, Q8IVF5
T5 sequence (Q8IVF5 885-986, limits assumed, looked up): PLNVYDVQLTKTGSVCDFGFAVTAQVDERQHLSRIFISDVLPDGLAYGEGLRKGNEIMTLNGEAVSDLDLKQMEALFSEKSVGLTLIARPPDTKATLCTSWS

T6: PCLO, Q9Y6V0
T6 sequence (Q9Y6V0 4491-4600, limits assumed, looked up): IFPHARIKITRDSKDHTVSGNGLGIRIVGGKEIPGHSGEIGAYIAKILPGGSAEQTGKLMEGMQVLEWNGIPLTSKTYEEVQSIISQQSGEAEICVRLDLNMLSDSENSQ

T7: CARD11, Q9BXL7
T7 sequence (Q9BXL7 662-765, limits assumed, looked up): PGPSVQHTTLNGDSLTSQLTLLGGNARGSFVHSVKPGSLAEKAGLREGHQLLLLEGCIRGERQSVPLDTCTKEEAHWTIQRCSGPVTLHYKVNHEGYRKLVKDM

T8: APBA2_1, Q99767
T8 sequence (Q99767 563-664, limits assumed, looked up): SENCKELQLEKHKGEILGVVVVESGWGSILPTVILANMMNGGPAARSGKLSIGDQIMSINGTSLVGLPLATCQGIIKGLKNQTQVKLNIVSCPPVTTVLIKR

T9: NHERF3_1, Q5T2W1
T9 sequence (Q5T2W1 4-100, limits assumed, looked up): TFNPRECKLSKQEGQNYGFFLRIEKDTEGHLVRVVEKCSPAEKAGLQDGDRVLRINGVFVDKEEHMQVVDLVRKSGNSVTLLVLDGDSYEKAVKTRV

T10: TJP3_3, O95049
T10 sequence (O95049 375-456, limits assumed, looked up): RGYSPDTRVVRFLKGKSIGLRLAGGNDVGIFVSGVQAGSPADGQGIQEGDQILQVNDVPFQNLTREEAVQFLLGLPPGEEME

T11: SNTA1, Q13424
T11 sequence (Q13424 82-180, limits assumed, looked up): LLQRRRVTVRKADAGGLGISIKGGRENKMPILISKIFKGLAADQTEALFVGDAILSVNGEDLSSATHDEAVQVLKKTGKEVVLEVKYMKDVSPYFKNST

T12: APBA3_1, O96018
T12 sequence (O96018 389-490, limits assumed, looked up): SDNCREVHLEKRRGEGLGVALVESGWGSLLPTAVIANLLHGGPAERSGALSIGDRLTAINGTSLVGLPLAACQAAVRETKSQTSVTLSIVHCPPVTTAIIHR

T13: ARHGEF11, O15085
T13 sequence (O15085 42-136, limits assumed, looked up): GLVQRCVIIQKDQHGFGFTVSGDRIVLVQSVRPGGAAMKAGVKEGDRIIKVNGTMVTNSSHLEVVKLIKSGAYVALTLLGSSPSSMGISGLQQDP

B1: LSM14A, Q8ND56;Q8ND56-2 (peptide)
chain: EYRKDNKVAA
B2: VAC14, Q08AM6 (peptide)
chain: GDHLDRRVVL
B3: NDE1, Q9NXR1;Q9NXR1-2 (peptide)
chain: KSTTRSSSSC

Key:
Assay in all cases: holdup assay
Parameters in all cases: key: below the threshold = too weak to quantify, mostly under pKd 3.1 to 4
Conditions in all cases: plain residues with an end cap or a label only (N-terminal biotin on a linker: ado-ado)
GRIP1_2, Q9Y3R0 = target: T1, GRIP1_2, Q9Y3R0
FRMPD1, Q5SYB0 = target: T2, FRMPD1, Q5SYB0
MPP6, Q9NZW5 = target: T3, MPP6, Q9NZW5
DVL3, Q92997 = target: T4, DVL3, Q92997
TIAM2, Q8IVF5 = target: T5, TIAM2, Q8IVF5
DLG5_1, Q8TDM6 = target: DLG5_1, Q8TDM6
Chain of DLG5_1, Q8TDM6 (Q8TDM6 617-713): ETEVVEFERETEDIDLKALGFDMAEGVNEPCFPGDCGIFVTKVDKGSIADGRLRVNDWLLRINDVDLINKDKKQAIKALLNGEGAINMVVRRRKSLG

PCLO, Q9Y6V0 = target: T6, PCLO, Q9Y6V0
PICK1, Q9NRD5 = target: PICK1, Q9NRD5
Chain of PICK1, Q9NRD5 (Q9NRD5 17-115): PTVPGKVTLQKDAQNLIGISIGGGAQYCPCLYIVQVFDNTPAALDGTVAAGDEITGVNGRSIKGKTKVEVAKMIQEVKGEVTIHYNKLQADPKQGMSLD

CARD11, Q9BXL7 = target: T7, CARD11, Q9BXL7
APBA2_1, Q99767 = target: T8, APBA2_1, Q99767
CASK, O14936 = target: CASK, O14936
Chain of CASK, O14936 (O14936 487-570): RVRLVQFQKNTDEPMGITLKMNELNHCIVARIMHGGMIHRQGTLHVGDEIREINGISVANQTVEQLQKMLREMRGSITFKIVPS

NHERF4_2, Q86UT5 = target: NHERF4_2, Q86UT5
Chain of NHERF4_2, Q86UT5 (Q86UT5 220-308): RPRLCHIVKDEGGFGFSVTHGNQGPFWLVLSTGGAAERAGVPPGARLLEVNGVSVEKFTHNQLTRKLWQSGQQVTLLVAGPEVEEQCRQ

GRIP2_3, Q9C0E4 = target: GRIP2_3, Q9C0E4
Chain of GRIP2_3, Q9C0E4 (Q9C0E4 238-339): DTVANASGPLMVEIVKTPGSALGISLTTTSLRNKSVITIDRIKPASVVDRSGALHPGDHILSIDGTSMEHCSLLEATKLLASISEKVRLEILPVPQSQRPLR

NHERF3_1, Q5T2W1 = target: T9, NHERF3_1, Q5T2W1
GRIP2_6, Q9C0E4 = target: GRIP2_6, Q9C0E4
Chain of GRIP2_6, Q9C0E4 (Q9C0E4 648-740): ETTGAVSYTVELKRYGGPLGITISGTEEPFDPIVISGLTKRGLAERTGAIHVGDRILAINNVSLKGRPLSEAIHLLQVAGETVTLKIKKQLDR

TJP3_3, O95049 = target: T10, TJP3_3, O95049
SNTA1, Q13424 = target: T11, SNTA1, Q13424
MAGI2_6, Q86UL8 = target: MAGI2_6, Q86UL8
Chain of MAGI2_6, Q86UL8 (Q86UL8 1141-1229): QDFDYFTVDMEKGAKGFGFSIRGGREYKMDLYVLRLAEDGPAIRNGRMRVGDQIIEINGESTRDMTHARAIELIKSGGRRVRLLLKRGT

IL16_1, Q14005 = target: IL16_1, Q14005
Chain of IL16_1, Q14005 (Q14005 210-306): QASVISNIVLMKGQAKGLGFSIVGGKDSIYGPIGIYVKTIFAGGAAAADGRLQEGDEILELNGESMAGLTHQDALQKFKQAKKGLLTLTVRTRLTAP

APBA3_1, O96018 = target: T12, APBA3_1, O96018
Inadl_6, Q8NI35 = target: Inadl_6, Q8NI35
Chain of Inadl_6, Q8NI35 (Q8NI35 1058-1167): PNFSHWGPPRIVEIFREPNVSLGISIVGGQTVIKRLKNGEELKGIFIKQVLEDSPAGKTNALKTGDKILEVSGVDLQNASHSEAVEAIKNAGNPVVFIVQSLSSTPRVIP

ARHGEF11, O15085 = target: T13, ARHGEF11, O15085
NOS1, P29475 = target: NOS1, P29475
Chain of NOS1, P29475 (P29475 9-101): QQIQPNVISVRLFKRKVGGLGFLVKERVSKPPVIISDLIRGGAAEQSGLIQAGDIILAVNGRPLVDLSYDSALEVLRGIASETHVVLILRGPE

ARHGEF12, Q9NZN5-2 = target: ARHGEF12, Q9NZN5-2
Chain of ARHGEF12, Q9NZN5-2 (Q9NZN5 other isoform, or with tags, fused parts or gaps): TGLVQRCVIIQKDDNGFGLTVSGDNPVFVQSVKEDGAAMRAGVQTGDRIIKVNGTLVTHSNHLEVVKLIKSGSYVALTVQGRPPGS

HTRA2, O43464 = target: HTRA2, O43464
Chain of HTRA2, O43464 (O43464 355-458): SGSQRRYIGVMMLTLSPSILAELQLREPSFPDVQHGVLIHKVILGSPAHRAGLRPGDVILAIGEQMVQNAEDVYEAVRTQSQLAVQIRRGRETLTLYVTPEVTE

| Binder | pKd (GRIP1_2, Q9Y3R0) | pKd (FRMPD1, Q5SYB0) | pKd (DVL3, Q92997) | pKd (DLG5_1, Q8TDM6) | pKd (PCLO, Q9Y6V0) | pKd (PICK1, Q9NRD5) | pKd (CARD11, Q9BXL7) | pKd (APBA2_1, Q99767) | pKd (CASK, O14936) | pKd (NHERF4_2, Q86UT5) | pKd (GRIP2_3, Q9C0E4) | pKd (NHERF3_1, Q5T2W1) | pKd (GRIP2_6, Q9C0E4) | pKd (TJP3_3, O95049) | pKd (SNTA1, Q13424) | pKd (MAGI2_6, Q86UL8) | pKd (IL16_1, Q14005) | pKd (APBA3_1, O96018) | pKd (Inadl_6, Q8NI35) | pKd (ARHGEF11, O15085) | also measured |
| --- | --- | --- | --- | --- | --- | --- | --- | --- | --- | --- | --- | --- | --- | --- | --- | --- | --- | --- | --- | --- | --- |
| B1 | below the threshold | below the threshold | below the threshold | below the threshold | below the threshold | below the threshold | below the threshold | below the threshold | below the threshold | below the threshold | below the threshold | below the threshold | below the threshold | below the threshold | below the threshold | below the threshold | below the threshold | below the threshold | below the threshold | below the threshold | pKd (MPP6, Q9NZW5): below the threshold; pKd (TIAM2, Q8IVF5): 4.1; pKd (NOS1, P29475): below the threshold; pKd (ARHGEF12, Q9NZN5-2): below the threshold; pKd (HTRA2, O43464): below the threshold |
| B2 | below the threshold | below the threshold | below the threshold | below the threshold | below the threshold | below the threshold | below the threshold | below the threshold | below the threshold | below the threshold | below the threshold | below the threshold | below the threshold | below the threshold | below the threshold | below the threshold | below the threshold | below the threshold | below the threshold | below the threshold | pKd (MPP6, Q9NZW5): 3.51; pKd (TIAM2, Q8IVF5): below the threshold; pKd (NOS1, P29475): below the threshold; pKd (ARHGEF12, Q9NZN5-2): 3.61; pKd (HTRA2, O43464): 3.48 |
| B3 | below the threshold | below the threshold | below the threshold | below the threshold | below the threshold | below the threshold | below the threshold | below the threshold | below the threshold | below the threshold | below the threshold | 3.91 | below the threshold | below the threshold | below the threshold | below the threshold | below the threshold | below the threshold | below the threshold | below the threshold | pKd (NOS1, P29475): below the threshold; pKd (ARHGEF12, Q9NZN5-2): 4.62; pKd (HTRA2, O43464): below the threshold |
